Results taken from article PMC2710984 (International Journal of Peptide Research and Therapeutics, 2006).
Square brackets hold non-standard residues; d marks the D form. Ends that are not written are not given here. Gly(cPr) = N[C@H](C(=O)O)C1CC1; Chg = N[C@H](C(=O)O)C1CCCCC1; Pip = O=C(O)[C@@H]1CCCCN1; Abu = CC[C@H](N)C(=O)O; Aib = CC(C)(N)C(=O)O

Molecular target: GST–BIR3 fusion protein (XIAP BIR3 domain)
Assay: FMAT bead-based fluorescence competition assay

Row | Binder | IC50 [µM]
1 | AV[Pip]F-NH2 [AV–Pip–F (compound 21)] | 0.71
2 | [Gly(cPr)]VPF-NH2 [Cpg–VPF (compound 12)] | > 1.6
3 | A[Gly(cPr)]PF-NH2 [A–Cpg–PF (compound 18)] | > 1.6
4 | [Chg]VPF-NH2 [Chx–VPF (compound 13)] | > 1.6
5 | [Abu]VPF-NH2 [Abu–VPF (compound 9)] | 0.12
6 | [Aib]VPF-NH2 [Dmg–VPF (compound 11)] | > 1.6
